According to patent publication US20210032664, “ENGINEERED MEGANUCLEASES WITH RECOGNITION SEQUENCES FOUND IN THE HUMAN BETA-2 MICROGLOBULIN GENE” (Precision Biosciences, Inc., published 2021):

Key:
Assay in all cases: cell_activity; human T cells, 1 ug mRNA, day 3
Conditions in all cases: tags: N-terminal SV40 NLS
[1] = target: T1, B2M 13-14x.93 EER66 (Artificial Sequence)
T1 chain: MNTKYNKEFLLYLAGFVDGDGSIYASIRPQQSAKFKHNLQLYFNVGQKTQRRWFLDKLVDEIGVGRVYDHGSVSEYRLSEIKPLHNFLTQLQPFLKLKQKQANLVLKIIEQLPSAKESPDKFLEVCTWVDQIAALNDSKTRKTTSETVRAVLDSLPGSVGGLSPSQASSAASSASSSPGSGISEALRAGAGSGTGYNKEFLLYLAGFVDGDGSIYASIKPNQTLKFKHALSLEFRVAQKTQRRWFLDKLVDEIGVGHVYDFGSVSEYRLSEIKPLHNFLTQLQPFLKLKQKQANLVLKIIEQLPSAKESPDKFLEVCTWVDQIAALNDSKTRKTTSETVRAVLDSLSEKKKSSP
Method: (§1) To test these variants of B2M 13-14x.93, donor human T cells were stimulated with anti-CD3 and anti-CD28 antibodies for 3 days, then electroporated with mRNA encoding a given B2M 13-14 meganuclease (1 μg) using the Amaxa 4D-Nucleofector (Lonza) according to the manufacturer's instructions. At 3 days post-electroporation, cells were stained with an antibody recognizing β-2 microglobulin (BD Biosciences) and analyzed by flow cytometry.

[2] = target: T2, B2M 13-14x.93 EQR66 (Artificial Sequence)
T2 chain: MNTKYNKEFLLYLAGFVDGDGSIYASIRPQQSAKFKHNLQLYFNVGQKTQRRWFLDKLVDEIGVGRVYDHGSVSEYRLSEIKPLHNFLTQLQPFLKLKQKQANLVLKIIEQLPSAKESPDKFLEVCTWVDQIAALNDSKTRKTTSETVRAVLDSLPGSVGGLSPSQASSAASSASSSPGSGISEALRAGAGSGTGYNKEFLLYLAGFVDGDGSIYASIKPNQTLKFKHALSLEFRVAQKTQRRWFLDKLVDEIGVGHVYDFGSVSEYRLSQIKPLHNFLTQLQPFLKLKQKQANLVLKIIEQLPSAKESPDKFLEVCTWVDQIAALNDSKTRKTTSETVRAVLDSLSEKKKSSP
Method: as §1

[3] = target: T3, B2M 13-14x.93 EQY66 (Artificial Sequence)
T3 chain: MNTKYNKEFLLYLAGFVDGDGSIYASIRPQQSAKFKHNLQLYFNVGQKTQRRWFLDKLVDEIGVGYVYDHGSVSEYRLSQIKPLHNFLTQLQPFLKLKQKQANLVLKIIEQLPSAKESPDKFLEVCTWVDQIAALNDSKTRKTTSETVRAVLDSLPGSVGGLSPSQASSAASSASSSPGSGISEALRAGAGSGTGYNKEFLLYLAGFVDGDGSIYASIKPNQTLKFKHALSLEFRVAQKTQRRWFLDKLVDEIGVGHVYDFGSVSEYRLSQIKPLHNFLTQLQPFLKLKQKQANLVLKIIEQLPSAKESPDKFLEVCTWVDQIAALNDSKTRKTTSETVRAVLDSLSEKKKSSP
Method: as §1

[4] = target: T4, B2M 13-14x.93 QQY66 (Artificial Sequence)
T4 chain: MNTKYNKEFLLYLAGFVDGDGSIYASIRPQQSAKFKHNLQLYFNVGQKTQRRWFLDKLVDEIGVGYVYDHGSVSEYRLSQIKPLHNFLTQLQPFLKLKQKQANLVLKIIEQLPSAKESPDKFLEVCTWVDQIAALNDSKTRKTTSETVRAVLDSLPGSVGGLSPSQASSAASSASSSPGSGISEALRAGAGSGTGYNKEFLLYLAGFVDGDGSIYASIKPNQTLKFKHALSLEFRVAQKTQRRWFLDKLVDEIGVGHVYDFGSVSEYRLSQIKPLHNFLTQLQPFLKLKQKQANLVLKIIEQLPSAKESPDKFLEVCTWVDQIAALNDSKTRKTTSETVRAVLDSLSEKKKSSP
Method: as §1

[5] = target: T5, B2M 13-14x.93 QQR66 (Artificial Sequence)
T5 chain: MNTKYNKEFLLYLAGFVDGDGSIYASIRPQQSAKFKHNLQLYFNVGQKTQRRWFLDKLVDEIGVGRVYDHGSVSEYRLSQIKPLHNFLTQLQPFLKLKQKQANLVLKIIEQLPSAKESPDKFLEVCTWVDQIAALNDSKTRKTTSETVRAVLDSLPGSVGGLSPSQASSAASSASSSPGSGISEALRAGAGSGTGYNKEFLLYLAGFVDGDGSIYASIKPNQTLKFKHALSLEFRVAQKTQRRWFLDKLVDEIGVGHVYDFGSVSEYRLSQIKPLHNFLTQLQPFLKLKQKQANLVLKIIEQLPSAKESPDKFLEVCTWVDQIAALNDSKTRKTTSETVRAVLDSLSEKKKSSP
Method: as §1

[6] = target: T6, B2M 13-14x.457 (Artificial Sequence)
T6 chain: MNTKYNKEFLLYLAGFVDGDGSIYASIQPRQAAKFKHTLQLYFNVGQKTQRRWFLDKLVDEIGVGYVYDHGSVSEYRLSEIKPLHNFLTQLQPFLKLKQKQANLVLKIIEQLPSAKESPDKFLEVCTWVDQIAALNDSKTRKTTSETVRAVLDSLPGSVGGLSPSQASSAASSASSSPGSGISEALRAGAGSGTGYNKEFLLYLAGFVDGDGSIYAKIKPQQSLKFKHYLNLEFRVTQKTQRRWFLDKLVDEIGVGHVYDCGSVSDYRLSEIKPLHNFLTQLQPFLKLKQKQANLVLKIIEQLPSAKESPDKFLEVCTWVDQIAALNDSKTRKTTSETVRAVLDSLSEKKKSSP
Method: (§2) Donor human T cells were stimulated with anti-CD3 and anti-CD28 antibodies for 3 days, then electroporated with mRNA encoding a given B2M 13-14 meganuclease (1 μg) using the Amaxa 4D-Nucleofector (Lonza) according to the manufacturer's instructions. To look for the loss of B2M surface expression, cells were stained with an antibody recognizing β-2 microglobulin (BD Biosciences) as well as an antibody recognizing CD3 (BioLegend), a marker of T cells.

[7] = target: T7, B2M 13-14x.202 (Artificial Sequence)
T7 chain: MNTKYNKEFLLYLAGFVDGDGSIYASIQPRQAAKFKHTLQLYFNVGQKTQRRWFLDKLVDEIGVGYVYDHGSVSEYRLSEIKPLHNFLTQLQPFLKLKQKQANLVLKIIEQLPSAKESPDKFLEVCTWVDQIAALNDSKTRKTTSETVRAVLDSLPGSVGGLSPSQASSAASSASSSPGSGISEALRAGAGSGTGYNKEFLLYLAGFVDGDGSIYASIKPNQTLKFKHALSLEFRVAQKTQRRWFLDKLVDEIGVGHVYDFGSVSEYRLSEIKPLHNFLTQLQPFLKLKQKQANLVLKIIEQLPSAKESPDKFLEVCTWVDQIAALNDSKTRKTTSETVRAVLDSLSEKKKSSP
Method: as §2

B1: B2M 13-14 recognition sequence (dsDNA)
DNA 1: CTATCTCTTGTACTACACTGAA
DNA 2: TTCAGTGTAGTACAAGAGATAG
Binder B1 has an activity [1] of 7.07 % B2M-negative, an activity [2] of 5.12 % B2M-negative and an activity [3] of 21.4 % B2M-negative. The activity [4] was 19.2 % B2M-negative, the activity [5] was 5.05 % B2M-negative and the activity [6] was 19.7 % B2M-negative. The activity [7] was 60.9 % B2M-negative.
